1 substance from publication PMC10180074, “Improved Stability and Catalytic Efficiency of ω-Transaminase in Aqueous Mixture of Deep Eutectic Solvents” (Molecules, 2023) can be followed below.

One data set relates to CC(=O)C(=O)O. Nature of the data set: Michaelis-Menten fit; acetophenone by HPLC. It is filed as biochemical, Aspergillus terreus. The settings on record: phosphate buffer, no DES, 1-(R)-PEA co-substrate, PLP, pH 8.0, 40 °C. The source says: (§1) Michaelis-Menten fit; acetophenone by HPLC on ω-TA variant from Aspergillus terreus (E133A)
Another data set deals with C[C@@H](N)c1ccccc1. Nature of the data set: Michaelis-Menten fit; acetophenone by HPLC. It is filed as biochemical, Aspergillus terreus. The settings on record: phosphate buffer, no DES, pyruvate constant, PLP, pH 8.0, 40 °C.
Source text: as §1

As for “ω-TA variant from Aspergillus terreus (E133A) (Aspergillus terreus NIH2624; E133A)”, in the data set with CC(=O)C(=O)O, the Km was 640 ± 70 µM, the kcat amounted to 0.54967 ± 0.0005 s⁻¹ and the kcat/Km worked out at 853 M⁻¹ s⁻¹. In the data set with C[C@@H](N)c1ccccc1, the Km is 650 ± 70 µM, the kcat was determined as 0.8027 ± 0.000833 s⁻¹ and the kcat/Km stood at 1230 M⁻¹ s⁻¹.

The Km is the substrate concentration at which the rate is half of its maximum. In general, kcat refers to the maximal rate divided by the concentration of active sites. The term kcat/Km denotes the turnover number divided by the Michaelis constant.
